According to patent US20020090651A1:

Molecular target: Xenopus FGF receptor-1 (Xenopus laevis) (UniProt P22182)
Experiment: cell-based or functional assay

Sequence of UniProt P22182 (P22182 21-812): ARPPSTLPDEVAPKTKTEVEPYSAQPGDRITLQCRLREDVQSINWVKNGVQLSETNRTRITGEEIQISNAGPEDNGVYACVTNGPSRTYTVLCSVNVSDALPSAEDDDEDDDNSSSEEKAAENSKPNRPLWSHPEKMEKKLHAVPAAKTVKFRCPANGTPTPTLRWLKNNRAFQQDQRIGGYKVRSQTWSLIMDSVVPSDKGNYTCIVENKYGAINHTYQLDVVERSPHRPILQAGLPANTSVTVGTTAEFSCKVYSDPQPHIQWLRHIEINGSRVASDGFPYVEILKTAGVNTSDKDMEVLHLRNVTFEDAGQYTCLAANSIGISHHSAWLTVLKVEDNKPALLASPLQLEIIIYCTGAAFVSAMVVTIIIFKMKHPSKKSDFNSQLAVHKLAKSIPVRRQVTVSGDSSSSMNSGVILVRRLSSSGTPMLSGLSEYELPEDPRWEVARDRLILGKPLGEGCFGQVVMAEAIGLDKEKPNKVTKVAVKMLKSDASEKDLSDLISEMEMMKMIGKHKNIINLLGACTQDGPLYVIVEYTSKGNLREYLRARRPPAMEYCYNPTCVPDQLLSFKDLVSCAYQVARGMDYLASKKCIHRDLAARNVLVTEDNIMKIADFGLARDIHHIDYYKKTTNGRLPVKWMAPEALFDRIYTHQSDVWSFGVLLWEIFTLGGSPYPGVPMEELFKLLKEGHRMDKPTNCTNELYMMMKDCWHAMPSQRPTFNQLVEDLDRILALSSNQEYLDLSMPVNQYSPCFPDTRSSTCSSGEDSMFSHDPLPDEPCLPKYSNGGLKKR

| Substance | Ca2+ release (efflux) of Xenopus oocytes co-injected with ligand and FGF receptor mRNAs [fold] |
| --- | --- |
| FRL-2 protein (ligand) | 2 |
| Xenopus bFGF (basic fibroblast growth factor), without a signal sequence (from UniProt P12226 1-155) (ligand) | 3 |
